Data reported in publication PMC5758712 (2018).
Values belong to the binder of their own block, whether it stands above or below them.

What was measured:
UBE2D1 = UBE2D1 (Homo sapiens (Human), UniProt P51668); assay: ITC; UbcH7 cells RING1 fragment, UbcH5A cells whole RBR
UBE2L3 = UBE2L3 (Homo sapiens (Human), UniProt P68036); assay: as above
UBE2L3, sequence (P68036 whole entry): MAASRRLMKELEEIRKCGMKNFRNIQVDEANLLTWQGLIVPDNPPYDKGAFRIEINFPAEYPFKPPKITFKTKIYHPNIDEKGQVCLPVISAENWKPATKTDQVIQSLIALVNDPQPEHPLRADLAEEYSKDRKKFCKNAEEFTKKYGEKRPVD

UBE2D1, sequence (P51668 whole entry, the tested form may be a part): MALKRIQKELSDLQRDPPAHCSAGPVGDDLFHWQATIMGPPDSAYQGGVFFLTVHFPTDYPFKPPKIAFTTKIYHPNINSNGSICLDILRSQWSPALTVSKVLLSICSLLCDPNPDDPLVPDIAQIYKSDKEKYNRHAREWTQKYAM

Kd (UBE2D1): > 50 µM
Kd (UBE2L3): 3.2 µM
B1: TRIAD3A (protein)
chain: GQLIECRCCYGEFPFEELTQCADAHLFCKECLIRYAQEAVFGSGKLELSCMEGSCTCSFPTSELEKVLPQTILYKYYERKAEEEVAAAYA

Kd (UBE2D1): > 50 µM
Kd (UBE2L3): 0.21 µM
B2: HHARI (protein)
chain: TRSSAQDMPCQICYLNYPNSYFTGLECGHKFCMQCWSEYLTTKIMEEGMGQTISCPAHGCDILVDDNTVMRLITDSKVKLKYQHLITNSFVECN
